Data published in article PMC4367809 (2015).

Legend:
actin (ATP-actin:GS1) = actin (ATP-actin:GS1) (Oryctolagus cuniculus, UniProt P68135); assay: ITC
[1] = molecular target: actin filament pointed end (Oryctolagus cuniculus, UniProt P68135); assay: pointed end elongation assay

| Binder | Kd (actin (ATP-actin:GS1)) [µM] | Kd [1] [µM] |
| --- | --- | --- |
| Tropomodulin-1 ABS2 160-349 (protein, actin in complex with gelsolin segment 1, ATP) GLNSVIKPTQYKPVPDEEPNSTDVEETLERIKNNDPKLEEVNLNNIRNIPIPTLKAYAEALKENSYVKKFSIVGTRSNDPVAYALAEMLKENKVLKTLNVESNFISGAGILRLVEALPYNTSLVEMKIDNQSQPLGNKVEMEIVSMLEKNATLLKFGYHFTQQGPRLRASNAMMNNNDLVRKRRLADLTG | 10.5 | – |
| Tropomodulin-1 ABS1 50-101 (protein, actin in complex with gelsolin segment 1, ATP) QKDQTTKAPTGPFKREELLDHLEKQAKEFKDREDLVPYTGEKRGKVWVPKQK | 7.5 | – |
| Tropomodulin-1 (protein, 1 uM tropomyosin, filament seeds capped at barbed end by capping protein) MSYRRELEKYRDLDEDEILGALTEEELRTLENELDELDPDNALLPAGLRQKDQTTKAPTGPFKREELLDHLEKQAKEFKDREDLVPYTGEKRGKVWVPKQKPLDPVLESVTLEPELEEALANASDAELCDIAAILGMHTLMSNQQYYQALSSSSIMNKEGLNSVIKPTQYKPVPDEEPNSTDVEETLERIKNNDPKLEEVNLNNIRNIPIPTLKAYAEALKENSYVKKFSIVGTRSNDPVAYALAEMLKENKVLKTLNVESNFISGAGILRLVEALPYNTSLVEMKIDNQSQPLGNKVEMEIVSMLEKNATLLKFGYHFTQQGPRLRASNAMMNNNDLVRKRRLADLTGPIIPKCRSGV | – | 0.028 |
| Tropomodulin-1 (protein, filament seeds capped at barbed end by capping protein) MSYRRELEKYRDLDEDEILGALTEEELRTLENELDELDPDNALLPAGLRQKDQTTKAPTGPFKREELLDHLEKQAKEFKDREDLVPYTGEKRGKVWVPKQKPLDPVLESVTLEPELEEALANASDAELCDIAAILGMHTLMSNQQYYQALSSSSIMNKEGLNSVIKPTQYKPVPDEEPNSTDVEETLERIKNNDPKLEEVNLNNIRNIPIPTLKAYAEALKENSYVKKFSIVGTRSNDPVAYALAEMLKENKVLKTLNVESNFISGAGILRLVEALPYNTSLVEMKIDNQSQPLGNKVEMEIVSMLEKNATLLKFGYHFTQQGPRLRASNAMMNNNDLVRKRRLADLTGPIIPKCRSGV | – | 0.108 |
